Assay results taken from patent publication US8586357B2, “Markers of definitive endoderm” (ViaCyte, Inc., priority 2003, dated 2013).

Key:
Format in all cases: cell-based, human
hESCs [1] = assay: Validation of definitive endoderm markers by Q-PCR (Example 12); conditions: 100 ng/ml activin A vs no exogenous activin A; Example 12 written in present tense
Experimental: Using the methods, such as those described in the above Examples, hESCs are differentiated to produce definitive endoderm. In particular, to increase the yield and purity of definitive endoderm in differentiating cell cultures, the serum concentration of the medium is controlled as follows: 0% FBS on day 1, 0.2% FBS on day 2 and 2.0% FBS on days 3-6. Differentiating cell populations are grown in the presence of 100 ng/ml activin A, whereas non-differentiating control populations are grown in the absence of activin A. Human embryonic cell cultures grown in the presence or absence of activin A and in either 2% serum or 10% serum over the entire 6 day differentiation period are also monitored. Daily samples of each culture are withdrawn and the amount of mRNA transcript produced for each of the markers AGPAT3, APOA2, C20orf56, C21orf129, CALCR, CCL2, CER1, CMKOR1, CRIP1, CXCR4, CXorf1, DIO3, DIO3OS, EB-1, EHHADH, ELOVL2, EPSTI1, FGF17, FLJ10970, FLJ21195, FLJ22471, FLJ23514, FOXA2, FOXQ1, GATA4, GPR37, GSC, LOC283537, MYL7, NPPB, NTN4, PRSS2, RTN4RL1, SEMA3E, SIAT8D, SLC5A9, SLC40A1, SOX17, SPOCK3, TMOD1, TRPA1, TTN, AW166727, AI821586, BF941609, AI916532, BC034407, N63706 and AW772192 is measured by Q-PCR.

hESCs [2] = assay: Immunocytochemistry: SOX17, AFP and TM antibody labeling of differentiating hESCs
From the text: As described in detail herein, the SOX17 antibody was utilized to specifically examine effects of various treatments and differentiation procedures aimed at the production of SOX17 positive definitive endoderm cells. Other antibodies reactive to AFP, SPARC and Thrombomodulin were also employed to rule out the production of visceral and parietal endoderm (extra-embryonic endoderm).
As evidence that the SOX17 antibody is specific for human SOX17 protein and furthermore marks definitive endoderm, partially differentiated hESCs were co-labeled with SOX17 and AFP antibodies. […] However, AFP and SOX7 are not expressed in definitive endoderm cells at levels detectable by ICC, and thus, they be can employed as negative markers for bonifide definitive endoderm cells. It was shown that SOX17 antibody labels populations of cells that exist as discrete groupings of cells or are intermingled with AFP positive cells. […] Similarly, since parietal endoderm has also been reported to express SOX17, antibody co-labeling with SOX17 together with the parietal markers SPARC and/or Thrombomodulin (TM) can be used to identify the SOX17^+ cells which are parietal endoderm. As shown in FIGS. 6A-C, Thrombomodulin and SOX17 co-labelled parietal endoderm cells were produced by random differentiation of hES cells.
With the SOX17 antibody and Q-PCR tools described above we have explored a number of procedures capable of efficiently programming ESCs to become SOX17^hi/AFP^lo/SPARC/TM^lo definitive endoderm cells. We applied a variety of differentiation protocols aimed at increasing the number and proliferative capacity of these cells as measured at the population level by Q-PCR for SOX17 gene expression and at the level of individual cells by antibody labeling of SOX17 protein.
To determine the effect of TGFβ factor treatment at the individual cell level, a time course of TGFβ factor addition was examined using SOX17 antibody labeling. As previously shown in FIGS. 10A-F, there was a dramatic increase in the relative number of SOX17 labeled cells over time.
In these experiments, hESCs were differentiated by growing in RPMI medium (Invitrogen, Carlsbad, Calif.; cat#61870-036) supplemented with 0.5%, 2.0% or 10% FBS and either with or without 100 ng/mL activin A for 6 days. In addition, a gradient of FBS ranging from 0.5% to 2.0% over the first three days of differentiation was also used in conjunction with 100 ng/mL of activin A. After the 6 days, replicate samples were collected from each culture condition and analyzed for relative gene expression by real-time quantitative PCR. The remaining cells were fixed for immunofluorescent detection of SOX17 protein.

hESCs [3] = assay: Isolation of definitive endoderm cells by FACS using cell surface markers of Table 5 (Example 13); conditions: 100, 50 or 25 ng/ml activin A; Example 13 written in present tense
Experimental: Using methods, such as those described in the above Examples, hESCs are differentiated to produce definitive endoderm. In particular, to increase yield and purity of definitive endoderm in differentiating cell cultures, the serum concentration of the medium is controlled as follows: 0% FBS on day 1, 0.2% FBS on day 2 and 2.0% FBS on days 3-6. Differentiating cell populations are grown in the presence of 100 ng/ml, 50 ng/ml or 25 ng/ml activin A, whereas non-differentiating control populations are grown in the absence of activin A.
An appropriate amount of labeled antibody that binds to one of the markers listed above is added to a sample of each culture and labeling proceeds on ice. Cells are washed by adding PBS and pelleted. A second wash with buffer is completed then cells are resuspended. Secondary antibody (FITC conjugated secondary antibody is added and allowed to label for about 30 minutes followed by two washes in buffer as above. Cells are resuspended and analyzed and sorted using a FACS. Cells are collected directly into RLT lysis buffer for subsequent isolation of total RNA for gene expression analysis by real-time quantitative PCR.

B1: Activin A: growth factor of the TGFβ superfamily, Nodal/Activin subgroup; definitive endoderm inducer (protein, UniProt P08476 311-426, looked up)
Inhibin beta A chain: GLECDGKVNICCKKQFFVSFKDIGWNDWIIAPSGYHANYCEGECPSHIAGTSGSSLSFHSTVINHYRMRGHSPFANLKSCCVPTKLRPMSMLYYDDGQNIIKKDIQNMIVEECGCS
expression levels of the Table 4 markers (AGPAT3 ... AW772192) (hESCs [1]): high | difference in SOX17 antibody-labeled cell number, Activin A vs retinoic acid treated hESCs (hESCs [2]; FIG. 7B): 10 fold | SOX17+ cell number, dose response (hESCs [2]; FIG. 22): dose-dependent increase | frequency of SOX17+ cells (hESCs [2]; high dose activin A, FBS at 10% (v/v), 6 days): much lower frequency | distribution of SOX17+ cells in the culture (hESCs [2]; high dose activin A, low FBS concentration (0.5%-2.0%), 6 days): ubiquitously distributed | number of cells positive for the Table 4 markers as dose is increased (hESCs [3]): increase significantly
